Experiment [1] deals with T1, Recombinant Human TNF-α/TNFSF1A (human, UniProt P01375 77-233). Kind of experiment: cell-based or functional assay.
Experiment [2] has as its target NGF (Neuroscreen-1 bioassay). Put plainly: cell-based or functional assay.
Experiment [3] concerns the target T2, Recombinant Human β-NGF (human, UniProt P01138 122-239, limits assumed).
T2 construct: Bought reagent used in the Biacore analyses
Kind of experiment: Biacore SPR. On the procedure: (§1) The BIACORE assay (Biacore, Inc, Piscataway, N.J.) determines the affinity of antibodies or DVD-Ig with kinetic measurements of on-rate and off-rate constants. Binding of antibodies or DVD-Ig to a target antigen (for example, a purified recombinant target antigen) is determined by surface plasmon resonance-based measurements with a Biacore® 1000 or 3000 instrument (Biacore® AB, Uppsala, Sweden) using running HBS-EP (10 mM HEPES [pH 7.4], 150 mM NaCl, 3 mM EDTA, and 0.005% surfactant P20) at 25° C. All chemicals are obtained from Biacore® AB (Uppsala, Sweden) or otherwise from a different source as described in the text. For example, approximately 5000 RU of goat anti-mouse IgG, (Fcγ), fragment specific polyclonal antibody (Pierce Biotechnology Inc, Rockford, Ill.) diluted in 10 mM sodium acetate (pH 4.5) is directly immobilized across a CM5 research grade biosensor chip using a standard amine coupling kit according to manufacturer's instructions and procedures at 25 μg/ml. Unreacted moieties on the biosensor surface are blocked with ethanolamine. Modified carboxymethyl dextran surface in flowcell 2 and 4 is used as a reaction surface. Unmodified carboxymethyl dextran without goat anti-mouse IgG in flow cell 1 and 3 is used as the reference surface. For kinetic analysis, rate equations derived from the 1:1 Langmuir binding model are fitted simultaneously to association and dissociation phases of all eight injections (using global fit analysis) with the use of Biaevaluation 4.0.1 software. Purified antibodies or DVD-Ig are diluted in HEPES-buffered saline for capture across goat anti-mouse IgG specific reaction surfaces. Antibodies or DVD-Ig to be captured as a ligand (25 μg/ml) are injected over reaction matrices at a flow rate of 5 μl/min. The association and dissociation rate constants, kₘ (M⁻¹s⁻¹) and koff (s⁻¹) are determined under a continuous flow rate of 25 μl/min. Rate constants are derived by making kinetic binding measurements at different antigen concentrations ranging from 10-200 nM. The equilibrium dissociation constant (M) of the reaction between antibodies or DVD-Igs and the target antigen is then calculated from the kinetic rate constants by the following formula: KD=koff/kₒₙ. Binding is recorded as a function of time and kinetic rate constants are calculated.
Background: SPR reads the build-up and loss of mass on a sensor chip optically.

The target of experiment [4] is T1, Recombinant Human TNF-α/TNFSF1A. Put plainly: Biacore SPR. The method, then:
as §1

Experiment [5] addresses T3, Recombinant Human SOST (human, UniProt Q9BQB4 24-213).
T3 construct: R&D reagent in Biacore; also called sclerostin; Human sclerostin (Abbott PR-1261069)
T3 sequence (looked up): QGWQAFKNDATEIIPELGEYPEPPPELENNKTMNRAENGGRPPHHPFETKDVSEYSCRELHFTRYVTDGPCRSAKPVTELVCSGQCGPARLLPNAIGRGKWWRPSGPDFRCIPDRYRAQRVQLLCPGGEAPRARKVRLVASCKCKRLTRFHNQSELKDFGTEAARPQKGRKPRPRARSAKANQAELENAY
Put plainly: Biacore SPR. On the procedure: as §1

T2 sequence (P01138 122-239 limits assumed): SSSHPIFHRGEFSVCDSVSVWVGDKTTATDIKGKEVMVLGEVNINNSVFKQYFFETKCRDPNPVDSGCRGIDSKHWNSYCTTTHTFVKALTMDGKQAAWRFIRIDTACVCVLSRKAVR
T1 sequence (P01375 77-233 limits assumed): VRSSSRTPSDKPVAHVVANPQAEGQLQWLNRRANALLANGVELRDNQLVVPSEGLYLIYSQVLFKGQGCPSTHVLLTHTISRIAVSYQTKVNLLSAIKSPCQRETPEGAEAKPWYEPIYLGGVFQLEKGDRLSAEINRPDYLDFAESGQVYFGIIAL

B1: DVD1233 (bispecific antibody, human IgG1, kappa)
heavy: not shown
light: DIQMTQSPSSLSASVGDRVTITCRASQSISNNLNWYQQKPGKAPKLLIYYTSRFHSGVPSRFSGSGSGTDFTFTISSLQPEDIATYYCQQEHTLPYTFGQGTKLEIKRTVAAPDIVMTQSHKFMSTTVGDRVSITCKASQAVSSAVAWYQQKPGQSPKLLIYWASTRHTGVPDRFTGSGSVTDFTLTIHNLQAEDLALYYCQQHYSTPFTFGSGTKLEIKRTVAAPSVFIFPPSDEQLKSGTASVVCLLNNFYPREAKVQWKVDNALQSGNSQESVTEQDSKDSTYSLSSTLTLSKADYEKHKVYACEVTHQGLSSPVTKSFNRGEC
notes: constant regions from vectors V1/V2; also called DVD1233H; DVD1233L
Usually Kd stands for the free concentration of one partner at which half of the binding sites on the other are occupied at equilibrium, for simple one-to-one binding. The koff is the first-order rate constant of dissociation. As usually defined, the kon is a measure of how fast the partners come together. Regarding B1, the “C-terminal VD TNFα Neutralization Assay EC50 nM (L929 cells)” value in experiment [1] is 42.4 nM. In addition, the “N-Terminal VD NGF Inhibition Assay EC50 pM (ERK1/2 phosphorylation, Neuroscreen-1 cells)” value in experiment [2] was 62 pM. In experiment [3], the dissociation constant Kd stood at 0.0217 nM, the koff was determined as 1.82e-05 s⁻¹ and the kon was 840000 M⁻¹ s⁻¹. In experiment [4], the Kd is 0.115 nM, the koff was 2.82e-05 s⁻¹ and the kon stood at 244000 M⁻¹ s⁻¹.

B2: DVD1249 (bispecific antibody, human IgG1, kappa)
heavy: not shown
light: DVQMIQSPSSLSASLGDIVTMTCQASQGTSINLNWFQQKPGKAPKLLIYGSSNLEDGVPSRFSGSRYGTDFTLTISSLEDEDLATYFCLQHSYLPYTFGGGTKLEIKRTVAAPDIQMTQSPSSLSASVGDRVTITCRASQGIRIDLGWYQQKPGKAPKRLIYAASTLQSGVPSRFSGSGSGTEFIFTISSLQPEDFASYYCLQHKSYPLTFGGGTKVEIKRTVAAPSVFIFPPSDEQLKSGTASVVCLLNNFYPREAKVQWKVDNALQSGNSQESVTEQDSKDSTYSLSSTLTLSKADYEKHKVYACEVTHQGLSSPVTKSFNRGEC
notes: constant regions from vectors V1/V2; also called DVD1249H; DVD1249L
Regarding B2, the “C-terminal VD TNFα Neutralization Assay EC50 nM (L929 cells)” value in experiment [1] was 5.42 nM. Moreover, in experiment [5], the Kd worked out at 0.017 nM, the koff came to 0.000159 s⁻¹ and the kon was determined as 9.42e+06 M⁻¹ s⁻¹. In experiment [4], the Kd was determined as 0.389 nM, the koff was found to be 0.000253 s⁻¹ and the kon was determined as 649000 M⁻¹ s⁻¹.

B3: AB218 (antibody, human IgG1, kappa, V domains shown)
VH: EVQLVESGGGLIQPGGSLRLSCAASGFTVSRNYMSWVRQAPGKGLEWVSVIYSGDRTYYADSVKGRFTISRDNSKNTLYLQMNSLRAEDTAVYYCARGEGGFDYWGQGTLVTVSS
VL: EIVMTQSPATLSVSPGERATLSCRASQSVSSNLAWYQQKPGQAPRLLIHGASIRATGLPARFSGSGSGTEFTLTISSLQSEDFAVYYCQQYNYWWTFGQGTKVEIKR
notes: Parent anti-TNF antibody; also called AB218VH
B3: in experiment [1], the “TNFα Neutralization Assay EC50 nM (L929 cells)” value was determined as 0.0345 nM. Moreover, in experiment [4], the Kd was determined as 0.0288 nM, the koff was 5.15e-05 s⁻¹ and the kon turned out to be 1.79e+06 M⁻¹ s⁻¹.

B4: DVD1227 (bispecific antibody, human IgG1, kappa)
heavy: not shown
light: DVQMIQSPSSLSASLGDIVTMTCQASQGTSINLNWFQQKPGKAPKLLIYGSSNLEDGVPSRFSGSRYGTDFTLTISSLEDEDLATYFCLQHSYLPYTFGGGTKLEIKRTVAAPDIVMTQSHKFMSTTVGDRVSITCKASQAVSSAVAWYQQKPGQSPKLLIYWASTRHTGVPDRFTGSGSVTDFTLTIHNLQAEDLALYYCQQHYSTPFTFGSGTKLEIKRTVAAPSVFIFPPSDEQLKSGTASVVCLLNNFYPREAKVQWKVDNALQSGNSQESVTEQDSKDSTYSLSSTLTLSKADYEKHKVYACEVTHQGLSSPVTKSFNRGEC
notes: constant regions from vectors V1/V2; also called DVD1227H; DVD1227L
Consider B4, for which the “C-terminal VD TNFα Neutralization Assay EC50 nM (L929 cells)” value in experiment [1] amounted to 1.23 nM. Also, in experiment [5], the Kd was 0.03 nM, the koff was determined as 0.000211 s⁻¹ and the kon was determined as 7.05e+06 M⁻¹ s⁻¹. In addition, in experiment [4], the dissociation constant Kd was 0.381 nM, the koff was 4.64e-05 s⁻¹ and the kon was determined as 122000 M⁻¹ s⁻¹.

B5: AB217 (antibody, human IgG1, kappa, V domains shown)
VH: QVQLVESGGGVVQPGRSLRLSCAASGFTFSSYDMHWVRQAPGKGLEWVAVIWSDGSIKYYADSVKGRFTISRDNSKNTLYLQMNSLRAEDTAVYYCAREVESAMGGFYYNGMDVWGQGTTVTVSS
VL: DIQMTQSPSSLSASVGDRVTITCRASQGIRIDLGWYQQKPGKAPKRLIYAASTLQSGVPSRFSGSGSGTEFIFTISSLQPEDFASYYCLQHKSYPLTFGGGTKVEIKR
notes: Parent anti-TNF antibody; also called AB217VH
Regarding B5, the “TNFα Neutralization Assay EC50 nM (L929 cells)” value in experiment [1] stood at 0.212 nM. For the same molecule, in experiment [4], the Kd was determined as 0.0272 nM, the koff worked out at 5.04e-05 s⁻¹ and the kon was found to be 1.85e+06 M⁻¹ s⁻¹.

B6: DVD1226 (bispecific antibody, human IgG1, kappa)
heavy: not shown
light: DIVMTQSHKFMSTTVGDRVSITCKASQAVSSAVAWYQQKPGQSPKLLIYWASTRHTGVPDRFTGSGSVTDFTLTIHNLQAEDLALYYCQQHYSTPFTFGSGTKLEIKRTVAAPDVQMIQSPSSLSASLGDIVTMTCQASQGTSINLNWFQQKPGKAPKLLIYGSSNLEDGVPSRFSGSRYGTDFTLTISSLEDEDLATYFCLQHSYLPYTFGGGTKLEIKRTVAAPSVFIFPPSDEQLKSGTASVVCLLNNFYPREAKVQWKVDNALQSGNSQESVTEQDSKDSTYSLSSTLTLSKADYEKHKVYACEVTHQGLSSPVTKSFNRGEC
notes: constant regions from vectors V1/V2; also called DVD1226H; DVD1226L
Turning to B6, the “N-terminal VD TNFα Neutralization Assay EC50 nM (L929 cells)” value in experiment [1] is 0.0409 nM. Further, in experiment [5], the Kd amounted to 2.71 nM, the koff is 0.000199 s⁻¹ and the kon was found to be 73400 M⁻¹ s⁻¹. Besides, in experiment [4], the Kd was determined as 0.0288 nM, the koff was determined as 0.000116 s⁻¹ and the kon was 4.02e+06 M⁻¹ s⁻¹.

B7: DVD1251 (bispecific antibody, human IgG1, kappa)
heavy: not shown
light: DIQMTQSPSSLSASVGDRVTITCRASQSISNNLNWYQQKPGKAPKLLIYYTSRFHSGVPSRFSGSGSGTDFTFTISSLQPEDIATYYCQQEHTLPYTFGQGTKLEIKRTVAAPDIQMTQSPSSLSASVGDRVTITCRASQGIRIDLGWYQQKPGKAPKRLIYAASTLQSGVPSRFSGSGSGTEFIFTISSLQPEDFASYYCLQHKSYPLTFGGGTKVEIKRTVAAPSVFIFPPSDEQLKSGTASVVCLLNNFYPREAKVQWKVDNALQSGNSQESVTEQDSKDSTYSLSSTLTLSKADYEKHKVYACEVTHQGLSSPVTKSFNRGEC
notes: constant regions from vectors V1/V2; also called DVD1251H; DVD1251L
B7: the “C-terminal VD TNFα Neutralization Assay EC50 nM (L929 cells)” value in experiment [1] was 8.02 nM. In experiment [2], the “N-Terminal VD NGF Inhibition Assay EC50 pM (ERK1/2 phosphorylation, Neuroscreen-1 cells)” value is 95 pM. For the same molecule, in experiment [3], the Kd was 0.0139 nM, the off-rate constant (koff) worked out at 1.17e-05 s⁻¹ and the kon was determined as 842000 M⁻¹ s⁻¹. In addition, in experiment [4], the Kd amounted to 0.0894 nM, the koff amounted to 5.73e-05 s⁻¹ and the kon is 641000 M⁻¹ s⁻¹.

B8: DVD1230 (bispecific antibody, human IgG1, kappa)
heavy: not shown
light: EIVLTQSPATLSLSPGERATLSCRASQSVYSYLAWYQQKPGQAPRLLIYDASNRATGIPARFSGSGSGTDFTLTISSLEPEDFAVYYCQQRSNWPPFTFGPGTKVDIKRTVAAPDVQMIQSPSSLSASLGDIVTMTCQASQGTSINLNWFQQKPGKAPKLLIYGSSNLEDGVPSRFSGSRYGTDFTLTISSLEDEDLATYFCLQHSYLPYTFGGGTKLEIKRTVAAPSVFIFPPSDEQLKSGTASVVCLLNNFYPREAKVQWKVDNALQSGNSQESVTEQDSKDSTYSLSSTLTLSKADYEKHKVYACEVTHQGLSSPVTKSFNRGEC
notes: constant regions from vectors V1/V2; also called DVD1230H; DVD1230L
In the case of B8, the “N-terminal VD TNFα Neutralization Assay EC50 nM (L929 cells)” value in experiment [1] is 1.05 nM. In experiment [5], the Kd is 4.74 nM, the koff is 0.00029 s⁻¹ and the kon stood at 61100 M⁻¹ s⁻¹. Moreover, in experiment [4], the Kd was found to be 0.132 nM, the koff is 0.000223 s⁻¹ and the kon came to 1.69e+06 M⁻¹ s⁻¹.

B9: DVD1248 (bispecific antibody, human IgG1, kappa)
heavy: not shown
light: DIQMTQSPSSLSASVGDRVTITCRASQGIRIDLGWYQQKPGKAPKRLIYAASTLQSGVPSRFSGSGSGTEFIFTISSLQPEDFASYYCLQHKSYPLTFGGGTKVEIKRTVAAPDVQMIQSPSSLSASLGDIVTMTCQASQGTSINLNWFQQKPGKAPKLLIYGSSNLEDGVPSRFSGSRYGTDFTLTISSLEDEDLATYFCLQHSYLPYTFGGGTKLEIKRTVAAPSVFIFPPSDEQLKSGTASVVCLLNNFYPREAKVQWKVDNALQSGNSQESVTEQDSKDSTYSLSSTLTLSKADYEKHKVYACEVTHQGLSSPVTKSFNRGEC
notes: constant regions from vectors V1/V2; also called DVD1248H; DVD1248L
B9: the “N-terminal VD TNFα Neutralization Assay EC50 nM (L929 cells)” value in experiment [1] worked out at 0.006 nM. Also, in experiment [5], the Kd turned out to be 0.0546 nM, the koff worked out at 0.00039 s⁻¹ and the kon is 7.14e+06 M⁻¹ s⁻¹. In experiment [4], the dissociation constant Kd is 0.021 nM, the koff stood at 5.94e-05 s⁻¹ and the kon came to 2.83e+06 M⁻¹ s⁻¹.

Source of the values: patent US20110212094A1 (AbbVie / Abbott, published 2011).
